The results in this text go back to patent US20250027945A1 (University of California, published 2025).

The target of assay [1] is T1, human RYK on the surface of human tumor cell lines (human, UniProt P34925 46-607).
T1 construct: whole, on cells; Endogenous expression
The assay is described as follows: flow cytometry, RAJI cells (Burkitt NHL), 5 ug/ml 2-D11-Alexa647; line unmarked (no staining). Here is the method:
(§1) Table 1 provides the flow cytometry data on various cancer cell lines stained with fluorochrome-conjugated 2-D11, as depicted in FIG. 8. The name of each cell line is listed in the first column and the tissue of origin is listed in the second column. Binding of the 2-D11 mAb to human RYK was assessed by flow cytometric staining and analysis by staining on ice for 20 minutes with 5 μg/ml of 2-D11 anti-human RYK-Alexa647 conjugated mAb or equal amounts of isotype matched control mAb, washed, and analyzed. The median fluorescence intensity (MFI) of 2-D11 stained cells is listed in the middle column and the MFI of isotype control stained cells are listed in the in the adjacent column. Cell lines were scored as “++”, “+”, or neg (unmarked with “+”) lines based on the ratio of median fluorescence intensity (MFI) of stained cells relative to the MFI of isotype control stained cells (MFIR).
(§2) The name of each cell line is listed in the first column and the tissue of origin is listed in the second column. Binding of the 2-D11 mAb to human RYK was assessed by flow cytometric staining and analysis by staining on ice for 20 minutes with 5 μg/ml of 2-D11 anti-human RYK-Alexa647 conjugated mAb or equal amounts of isotype matched control mAb, washed and analyzed. […]
(In general: Flow cytometry measures light scatter and fluorescence of single cells or particles in a stream.)

In assay [2] the target is T1, human RYK on the surface of human tumor …. The assay is described as follows: flow cytometry, HT144 cells (skin), 5 ug/ml 2-D11-Alexa647. As to the method: as §1, §2
For assay [3] the target is unchanged. Kind of assay: flow cytometry, SKBR3 cells (breast), 5 ug/ml 2-D11-Alexa647. As to the method: as §1, §2
Assay [4] has the same target. The assay is described as follows: flow cytometry, MDA-MB-231 cells (breast), 5 ug/ml 2-D11-Alexa647; line unmarked (no staining). Here is the method:
as §1, §2

Assay [5] shares this target. The assay is described as follows: flow cytometry, DU-145 cells (prostate), 5 ug/ml 2-D11-Alexa647; line unmarked (no staining). As to the method: as §1, §2
Assay [6] has the same target. The assay is described as follows: flow cytometry, MOLT4 cells (T-cell ALL), 5 ug/ml 2-D11-Alexa647; line unmarked (no staining). Here is the method:
as §1, §2

Assay [7] shares this target. The assay is described as follows: flow cytometry, H460 cells (lung), 5 ug/ml 2-D11-Alexa647. As to the method:
as §1, §2

Assay [8] shares this target. The assay is described as follows: flow cytometry, BT549 cells (breast), 5 ug/ml 2-D11-Alexa647. As to the method: as §1, §2
The target of assay [9] is T2, recombinant human RYK protein used in KinExA (human, UniProt P34925 46-227, limits assumed).
T2 construct: Legend prints 'RYK2'; also called recombinant human RYK2 protein
T2 sequence (P34925 46-227 limits assumed, form in doubt): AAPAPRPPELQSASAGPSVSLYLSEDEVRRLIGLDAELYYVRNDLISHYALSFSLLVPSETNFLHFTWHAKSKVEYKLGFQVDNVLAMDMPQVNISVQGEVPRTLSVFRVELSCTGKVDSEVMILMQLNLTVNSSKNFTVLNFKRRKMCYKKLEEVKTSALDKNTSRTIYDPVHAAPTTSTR
The assay is described as follows: KinExA 3200, soluble RYK competitor against RYK-coated particles. As to the method:
Analysis was performed using a KinExA 3200 instrument. FIG. 7A: The proportion of anti-human RYK mAb bound to particles coated with RYK protein (y-axis) in the presence of increasing molar (M) concentration of soluble RYK competitor (x-axis) is shown for 2-D11 mAb (upper left panel) and 7-H10 mAb (lower left panel).
Background: In KinExA the mixture passes briefly over coated beads that capture the unbound partner.

The target in assay [10] is T1, human RYK on the surface of human tumor …. The assay is described as follows: flow cytometry, MEC1 cells (CLL), 5 ug/ml 2-D11-Alexa647; line unmarked (no staining). As to the method:
as §1, §2

The target is the same in assay [11]. The assay is described as follows: flow cytometry, SK-MEL-2 cells (skin), 5 ug/ml 2-D11-Alexa647; line unmarked (no staining). As to the method:
as §1, §2

The target is the same in assay [12]. The assay is described as follows: flow cytometry, EW36 cells (NHL), 5 ug/ml 2-D11-Alexa647; line unmarked (no staining). As to the method: as §1, §2
Assay [13] shares this target. The assay is described as follows: flow cytometry, SW620 cells (colon), 5 ug/ml 2-D11-Alexa647; line unmarked (no staining). Here is the method: as §1, §2
Assay [14] shares this target. Kind of assay: flow cytometry, CAPAN-1 cells (pancreas), 5 ug/ml 2-D11-Alexa647. Here is the method:
as §1, §2

Assay [15] shares this target. The assay is described as follows: flow cytometry, SH-SY5Y cells (brain), 5 ug/ml 2-D11-Alexa647. Here is the method: as §1, §2
Assay [16] has the same target. Kind of assay: flow cytometry, MINO cells (mantle), 5 ug/ml 2-D11-Alexa647. Here is the method: as §1, §2
The target is the same in assay [17]. Kind of assay: flow cytometry, T24 cells (bladder), 5 ug/ml 2-D11-Alexa647. As to the method:
as §1, §2

The target is the same in assay [18]. The assay is described as follows: flow cytometry, OVCAR4 cells (ovarian), 5 ug/ml 2-D11-Alexa647. Here is the method: as §1, §2
For assay [19] the target is unchanged. The assay is described as follows: flow cytometry, JEKO cells (mantle), 5 ug/ml 2-D11-Alexa647; line unmarked (no staining). Here is the method: as §1, §2

The term Kd denotes the free concentration of one partner at which half of the binding sites on the other are occupied at equilibrium, for simple one-to-one binding.

T1 sequence (P34925 46-607 limits assumed, form in doubt): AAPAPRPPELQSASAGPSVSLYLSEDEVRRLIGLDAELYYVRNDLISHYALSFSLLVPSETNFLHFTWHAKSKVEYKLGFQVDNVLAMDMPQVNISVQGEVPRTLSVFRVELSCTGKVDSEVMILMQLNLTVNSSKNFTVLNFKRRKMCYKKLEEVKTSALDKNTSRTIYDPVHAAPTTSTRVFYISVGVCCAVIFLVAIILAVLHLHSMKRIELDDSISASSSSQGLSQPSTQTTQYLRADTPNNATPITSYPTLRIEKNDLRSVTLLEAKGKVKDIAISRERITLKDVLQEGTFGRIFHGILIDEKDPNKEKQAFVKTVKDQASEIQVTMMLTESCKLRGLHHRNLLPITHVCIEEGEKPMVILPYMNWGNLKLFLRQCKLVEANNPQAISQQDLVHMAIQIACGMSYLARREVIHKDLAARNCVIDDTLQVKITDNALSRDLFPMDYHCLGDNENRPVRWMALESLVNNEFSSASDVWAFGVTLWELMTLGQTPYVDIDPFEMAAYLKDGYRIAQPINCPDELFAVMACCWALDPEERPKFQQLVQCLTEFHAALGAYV

B1: 2-D11 anti-human RYK mAb (antibody, V domains shown)
VH: QVQLKESGPGLVAPSQSLSITCSVSGFSLNDYGVNWVRQPPGKDLEWLGMIWGDGVTEYNSTLKSRLSISKDNSKSQVFLKMNNLQTEDTARYYCVRQGSGVWFAHWGQGTLVSVSS
VL: DVLVTQTPLSLPVSLGDQASISCRSSQTIVHSNGNTYLEWYLQKPGQSPKLLIYKVSNRFSGVPDRFSGSGSGTDFTLKISRVEAEDLGIYYCFQGSHVPYTFGGGTKLEIK
notes: Mouse hybridoma mAb, kappa light chain, detected with anti-mouse IgG; also called mAb 2-D11; 2-D11 anti-human RYK-Alexa647 conjugated mAb
Consider B1, for which the “MFIR (MFI ratio to isotype control)” value was 1 in assay [1]; 1.6 in assay [2]; 1.6 in assay [3]; 1.1 in [4]; 1.3 in assay [5]; 0.9 in [6]. Also, the “MFIR (MFI ratio to isotype control)” value worked out at 1.5 in assay [7]; 3.9 in assay [8]; 1.1 in assay [10]; 1.1 in assay [11]; 1.1 in assay [12]; 1.2 in [13]. Moreover, the “MFIR (MFI ratio to isotype control)” value in assay [14] turned out to be 1.5; in [15] it was 2; in assay [16], 2; in [17] it was 1.6; in [18] it was 2.1; in assay [19] it was 1.3. The Kd in assay [9] is 0.513 nM.
